For this data set the following is noted: Bacillus amyloliquefaciens, pH 6.3, 25 °C, Fluorescence, MES 450 mM, reversible: yes, whole UniProt chain shown.

The values that follow come from FireProtDB (doi:10.1021/bi00067a022).

B1: Ribonuclease wild type, P00648 (protein)
chain: MMKMEGIALKKRLSWISVCLLVLVSAAGMLFSTAAKTETSSHKAHTEAQVINTFDGVADYLQTYHKLPDNYITKSEAQALGWVASKGNLADVAPGKSIGGDIFSNREGKLPGKSGRTWREADINYTSGFRNSDRILYSSDWLIYKTTDHYQTFTKIR
Regarding B1, for the setting “GdnHCl”, the denaturant m value was determined as 4.4 kcal/mol/M, the “denaturant midpoint (higher = more stable)” value turned out to be 2 M and the unfolding free energy is 36.8 kJ/mol. In addition, under “Urea”, the denaturant m value amounted to 1.92 kcal/mol/M, the “denaturant midpoint (higher = more stable)” value turned out to be 4.58 M and the unfolding free energy amounted to 36.8 kJ/mol.
